Test [1] deals with T1, human synaptogyrin 1, transcript variant 1b, construct 5 (N-terminal His tag with TEV cleavage site) (human), O43759.
T1 chain: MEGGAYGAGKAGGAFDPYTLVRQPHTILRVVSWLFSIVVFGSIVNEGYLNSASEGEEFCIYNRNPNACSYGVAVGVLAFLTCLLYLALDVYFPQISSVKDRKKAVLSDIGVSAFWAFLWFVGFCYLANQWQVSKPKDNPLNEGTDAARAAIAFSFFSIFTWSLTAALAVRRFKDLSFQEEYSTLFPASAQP
The test is described as follows: SDS-PAGE (SDS-resistant dimer); SDS-PAGE of fractions from the large-scale IMAC purification in DDM.

For test [2], the target named is T1, human synaptogyrin 1, transcript …. The test is described as follows: cross-linking; crude E. coli membranes, 2 mM DMS, room temperature, quenched with 200 mM Tris at time points; SDS-PAGE and Western blot with His probe. For orientation: A western blot detects proteins with antibodies after separation by electrophoresis.
Test [3] shares this target. Kind of test: cross-linking; DDM-solubilised and purified synaptogyrin 1, 0.25 mM DSS, room temperature, quenched with 200 mM Tris at time points; SDS-PAGE and Western blot with His probe.
For test [4] the target is unchanged. Kind of test: cross-linking; Triton X-100-solubilised and purified synaptogyrin 1, 1 mM glutaraldehyde, room temperature, quenched with 200 mM Tris at time points; SDS-PAGE and Western blot with His probe.

B1: human synaptogyrin 1, transcript variant 1b, construct 5 (N-terminal His tag with TEV cleavage site), O43759-2 1-191 (natural protein)
chain: MEGGAYGAGKAGGAFDPYTLVRQPHTILRVVSWLFSIVVFGSIVNEGYLNSASEGEEFCIYNRNPNACSYGVAVGVLAFLTCLLYLALDVYFPQISSVKDRKKAVLSDIGVSAFWAFLWFVGFCYLANQWQVSKPKDNPLNEGTDAARAAIAFSFFSIFTWSLTAALAVRRFKDLSFQEEYSTLFPASAQP
A word on the stoichiometry N: it is a count of units in the complex or per binding partner. As to B1, the stoichiometry N in test [1] was 2; in test [2], > 4; in test [3], > 4; in test [4], > 4.

The values are drawn from PMC3365889.
